{"source": "paper PMC8291048", "biological_target": "PKM2, endogenous in T24 cells (human (endogenous in T24)) (UniProt P14618)", "assay": "cross-linking; T24 cells (LV-DPYSL2, siDPYSL2 or negative control) lysed in 0.5% Triton X-100 sodium phosphate buffer pH 7.3; supernatant treated with 1% formaldehyde for 30 min; Western blot for PKM2 monomer, dimer and tetramer"}
{"substance": "PKM2, endogenous in T24 cells (from UniProt P14618 1-531) (enzyme; other documents disagree on this pair)", "values": [{"measurement": "stoichiometry N", "value": 2}]}
